# Experimental data as given in publication PMC9482650, “Quantitative fragmentomics allow affinity mapping of interactomes” (Nature Communications, 2022).
# T1: GRIP1_5, Q9Y3R0
# T1 sequence (Q9Y3R0 568-668, limits assumed, looked up): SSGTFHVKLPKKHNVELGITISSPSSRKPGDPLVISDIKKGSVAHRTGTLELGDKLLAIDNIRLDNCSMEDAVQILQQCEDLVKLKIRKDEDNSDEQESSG
# T2: HTRA4, P83105
# T2 sequence (P83105 378-476, limits assumed, looked up): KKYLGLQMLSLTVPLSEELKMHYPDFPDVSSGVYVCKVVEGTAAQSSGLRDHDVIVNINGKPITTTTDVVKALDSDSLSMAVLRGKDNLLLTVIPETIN
# T3: NHERF3_1, Q5T2W1
# T3 sequence (Q5T2W1 4-100, limits assumed, looked up): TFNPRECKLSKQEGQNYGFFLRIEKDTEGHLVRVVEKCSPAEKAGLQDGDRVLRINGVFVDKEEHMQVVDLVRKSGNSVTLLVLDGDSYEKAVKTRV
# T4: DVL3, Q92997
# T4 sequence (Q92997 244-331, limits assumed, looked up): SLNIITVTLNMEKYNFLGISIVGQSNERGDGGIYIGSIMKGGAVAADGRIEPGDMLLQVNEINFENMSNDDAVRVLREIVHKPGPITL
# T5: APBA2_1, Q99767
# T5 sequence (Q99767 563-664, limits assumed, looked up): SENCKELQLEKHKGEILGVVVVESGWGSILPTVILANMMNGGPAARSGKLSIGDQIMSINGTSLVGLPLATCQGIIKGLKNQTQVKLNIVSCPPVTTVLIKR
# T6: SNTG1, Q9NSN8
# T6 sequence (Q9NSN8 52-150, limits assumed, looked up): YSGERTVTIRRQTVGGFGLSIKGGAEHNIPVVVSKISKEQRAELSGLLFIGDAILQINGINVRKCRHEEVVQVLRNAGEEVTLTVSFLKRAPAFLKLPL
# T7: LNX2_2, Q8N448
# T7 sequence (Q8N448 334-432, limits assumed, looked up): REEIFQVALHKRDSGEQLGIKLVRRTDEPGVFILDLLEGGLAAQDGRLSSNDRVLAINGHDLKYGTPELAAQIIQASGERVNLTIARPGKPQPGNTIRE
# T8: GRIP1_3, Q9Y3R0
# T8 sequence (Q9Y3R0 247-346, limits assumed, looked up): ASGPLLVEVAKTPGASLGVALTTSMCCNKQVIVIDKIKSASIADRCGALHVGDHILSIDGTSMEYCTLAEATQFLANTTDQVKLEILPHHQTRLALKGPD
# T9: DLG3_1, Q92796
# T9 sequence (Q92796 125-227, limits assumed, looked up): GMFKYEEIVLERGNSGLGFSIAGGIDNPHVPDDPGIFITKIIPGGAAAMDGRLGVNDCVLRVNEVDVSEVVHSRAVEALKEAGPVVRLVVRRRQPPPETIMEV
# T10: RHPN1, Q8TCX5
# T10 sequence (Q8TCX5 508-602, limits assumed, looked up): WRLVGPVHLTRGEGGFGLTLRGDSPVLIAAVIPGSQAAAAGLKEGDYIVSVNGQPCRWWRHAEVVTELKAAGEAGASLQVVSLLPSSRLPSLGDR
# T11: ARHGEF11, O15085
# T11 sequence (O15085 42-136, limits assumed, looked up): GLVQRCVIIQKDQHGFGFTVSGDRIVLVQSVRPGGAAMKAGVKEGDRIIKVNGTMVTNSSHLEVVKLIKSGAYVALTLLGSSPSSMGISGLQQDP
# Tests used:
# Test in all cases: holdup assay
# Parameters in all cases: key: below the threshold = too weak to quantify, mostly under pKd 3.1 to 4
# GRIP1_5, Q9Y3R0 = target: T1, GRIP1_5, Q9Y3R0
# HTRA4, P83105 = target: T2, HTRA4, P83105
# LDB3, O75112 = target: LDB3, O75112
# Inadl_6, Q8NI35 = target: Inadl_6, Q8NI35
# NHERF3_1, Q5T2W1 = target: T3, NHERF3_1, Q5T2W1
# DVL3, Q92997 = target: T4, DVL3, Q92997
# APBA2_1, Q99767 = target: T5, APBA2_1, Q99767
# SNTG1, Q9NSN8 = target: T6, SNTG1, Q9NSN8
# LNX2_2, Q8N448 = target: T7, LNX2_2, Q8N448
# DLG1_1, Q12959 = target: DLG1_1, Q12959
# GRIP2_5, Q9C0E4 = target: GRIP2_5, Q9C0E4
# GRIP1_3, Q9Y3R0 = target: T8, GRIP1_3, Q9Y3R0
# Inadl_2, Q8NI35 = target: Inadl_2, Q8NI35
# Inadl_4, Q8NI35 = target: Inadl_4, Q8NI35
# MAGI1_1, Q96QZ7 = target: MAGI1_1, Q96QZ7
# Inadl_5, Q8NI35 = target: Inadl_5, Q8NI35
# PDZRN4_1, Q6ZMN7 = target: PDZRN4_1, Q6ZMN7
# FRMPD2_3, Q68DX3 = target: FRMPD2_3, Q68DX3
# MAGI1_2, Q96QZ7 = target: MAGI1_2, Q96QZ7
# DLG3_1, Q92796 = target: T9, DLG3_1, Q92796
# DLG4_1, P78352 = target: DLG4_1, P78352
# RHPN1, Q8TCX5 = target: T10, RHPN1, Q8TCX5
# ARHGEF11, O15085 = target: T11, ARHGEF11, O15085
# MAGI2_6, Q86UL8 = target: MAGI2_6, Q86UL8
# TJP2_1, Q9UDY2 = target: TJP2_1, Q9UDY2
# FRMPD4, Q14CM0 = target: FRMPD4, Q14CM0
# MAGI2_4, Q86UL8 = target: MAGI2_4, Q86UL8
# [1] = plain residues with an end cap or a label only (N-terminal biotin on a linker: ado-ado)
# [2] = plain residues with an end cap or a label only (N-terminal biotin on a linker: ahx)
# [3] = plain residues with an end cap or a label only (N-terminal biotin on a linker: ttds)
# Chain of Inadl_6, Q8NI35 (Q8NI35 1058-1167): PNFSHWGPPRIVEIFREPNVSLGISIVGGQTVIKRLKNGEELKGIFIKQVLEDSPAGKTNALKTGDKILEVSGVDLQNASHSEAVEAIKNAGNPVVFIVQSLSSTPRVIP
# Chain of MAGI2_6, Q86UL8 (Q86UL8 1141-1229): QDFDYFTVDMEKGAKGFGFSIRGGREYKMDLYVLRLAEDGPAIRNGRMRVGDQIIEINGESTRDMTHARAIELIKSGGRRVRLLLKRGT
# Chain of Inadl_2, Q8NI35 (Q8NI35 238-335): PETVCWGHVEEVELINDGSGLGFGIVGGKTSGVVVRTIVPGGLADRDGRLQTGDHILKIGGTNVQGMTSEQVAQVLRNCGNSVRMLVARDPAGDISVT
# Chain of MAGI1_1, Q96QZ7 (Q96QZ7 1-106): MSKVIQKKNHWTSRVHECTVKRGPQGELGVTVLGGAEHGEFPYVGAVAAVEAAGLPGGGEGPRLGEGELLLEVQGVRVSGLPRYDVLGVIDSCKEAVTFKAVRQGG
# Chain of GRIP2_5, Q9C0E4 (Q9C0E4 544-642): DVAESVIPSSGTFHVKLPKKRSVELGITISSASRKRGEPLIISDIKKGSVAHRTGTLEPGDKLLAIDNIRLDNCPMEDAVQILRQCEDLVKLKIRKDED
# Chain of FRMPD4, Q14CM0 (Q14CM0 67-160): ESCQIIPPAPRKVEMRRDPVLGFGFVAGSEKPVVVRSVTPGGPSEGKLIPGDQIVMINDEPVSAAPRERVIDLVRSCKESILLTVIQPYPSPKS
# Chain of LDB3, O75112 (O75112 1-94): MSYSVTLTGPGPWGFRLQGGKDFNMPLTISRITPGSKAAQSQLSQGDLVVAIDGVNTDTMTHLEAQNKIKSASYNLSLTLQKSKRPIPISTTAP
# Chain of Inadl_4, Q8NI35 (Q8NI35 547-651): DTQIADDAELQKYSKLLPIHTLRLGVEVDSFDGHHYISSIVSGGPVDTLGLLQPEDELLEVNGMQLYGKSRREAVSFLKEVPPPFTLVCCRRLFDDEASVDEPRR
# Chain of Inadl_5, Q8NI35 (Q8NI35 673-780): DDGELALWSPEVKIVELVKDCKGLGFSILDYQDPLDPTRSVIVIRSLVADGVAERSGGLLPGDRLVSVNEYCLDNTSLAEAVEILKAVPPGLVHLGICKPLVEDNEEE
# Chain of DLG4_1, P78352 (P78352 62-152): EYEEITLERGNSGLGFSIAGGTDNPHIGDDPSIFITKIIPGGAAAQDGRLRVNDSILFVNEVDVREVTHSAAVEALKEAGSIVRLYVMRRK
# Chain of MAGI2_4, Q86UL8 (Q86UL8 772-865): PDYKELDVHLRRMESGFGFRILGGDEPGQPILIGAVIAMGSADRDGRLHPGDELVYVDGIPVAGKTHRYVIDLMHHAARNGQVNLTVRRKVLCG
# Chain of FRMPD2_3, Q68DX3 (Q68DX3 1073-1166): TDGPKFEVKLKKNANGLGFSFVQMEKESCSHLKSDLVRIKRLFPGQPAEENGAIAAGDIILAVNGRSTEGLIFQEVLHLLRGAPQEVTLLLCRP
# Chain of PDZRN4_1, Q6ZMN7 (Q6ZMN7 213-318): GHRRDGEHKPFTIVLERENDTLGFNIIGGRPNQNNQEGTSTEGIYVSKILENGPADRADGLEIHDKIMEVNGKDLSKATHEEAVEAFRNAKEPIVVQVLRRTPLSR
# Chain of MAGI1_2, Q96QZ7 (Q96QZ7 456-580): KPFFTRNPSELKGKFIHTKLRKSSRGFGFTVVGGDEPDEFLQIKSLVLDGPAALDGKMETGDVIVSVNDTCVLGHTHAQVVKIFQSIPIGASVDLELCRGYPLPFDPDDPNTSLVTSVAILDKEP
# Chain of TJP2_1, Q9UDY2 (Q9UDY2 24-128): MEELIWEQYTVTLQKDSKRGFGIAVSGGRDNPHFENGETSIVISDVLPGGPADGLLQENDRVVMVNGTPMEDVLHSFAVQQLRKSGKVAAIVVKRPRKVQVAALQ
binder,measurement,setting,value
"GKKSVKHSKI [ACOT6, Q3I5F7]",pKd,"GRIP1_5, Q9Y3R0; [1]",below the threshold
same,pKd,"HTRA4, P83105; [1]",3.7
same,pKd,"LDB3, O75112; [1]",below the threshold
same,pKd,"Inadl_6, Q8NI35; [1]",below the threshold
same,pKd,"NHERF3_1, Q5T2W1; [1]",3.66
same,pKd,"DVL3, Q92997; [1]",below the threshold
same,pKd,"APBA2_1, Q99767; [1]",below the threshold
same,pKd,"SNTG1, Q9NSN8; [1]",below the threshold
same,pKd,"LNX2_2, Q8N448; [1]",below the threshold
same,pKd,"DLG1_1, Q12959; [1]",below the threshold
same,pKd,"GRIP2_5, Q9C0E4; [1]",below the threshold
same,pKd,"GRIP1_3, Q9Y3R0; [1]",below the threshold
same,pKd,"Inadl_2, Q8NI35; [1]",below the threshold
same,pKd,"Inadl_4, Q8NI35; [1]",below the threshold
same,pKd,"MAGI1_1, Q96QZ7; [1]",below the threshold
same,pKd,"Inadl_5, Q8NI35; [1]",below the threshold
same,pKd,"PDZRN4_1, Q6ZMN7; [1]",below the threshold
same,pKd,"FRMPD2_3, Q68DX3; [1]",below the threshold
same,pKd,"MAGI1_2, Q96QZ7; [1]",below the threshold
same,pKd,"DLG3_1, Q92796; [1]",below the threshold
same,pKd,"DLG4_1, P78352; [1]",below the threshold
same,pKd,"RHPN1, Q8TCX5; [1]",below the threshold
same,pKd,"ARHGEF11, O15085; [1]",below the threshold
same,pKd,"MAGI2_6, Q86UL8; [1]",below the threshold
same,pKd,"TJP2_1, Q9UDY2; [1]",below the threshold
same,pKd,"FRMPD4, Q14CM0; [1]",below the threshold
same,pKd,"MAGI2_4, Q86UL8; [1]",below the threshold
"GIFPTLTSPL [SHROOM3, Q8TF72]",pKd,"GRIP1_5, Q9Y3R0; [2]",below the threshold
same,pKd,"HTRA4, P83105; [2]",below the threshold
same,pKd,"LDB3, O75112; [2]",below the threshold
same,pKd,"Inadl_6, Q8NI35; [2]",below the threshold
same,pKd,"NHERF3_1, Q5T2W1; [2]",4.2
same,pKd,"DVL3, Q92997; [2]",below the threshold
same,pKd,"APBA2_1, Q99767; [2]",below the threshold
same,pKd,"SNTG1, Q9NSN8; [2]",below the threshold
same,pKd,"LNX2_2, Q8N448; [2]",below the threshold
same,pKd,"DLG1_1, Q12959; [2]",below the threshold
same,pKd,"GRIP2_5, Q9C0E4; [2]",below the threshold
same,pKd,"GRIP1_3, Q9Y3R0; [2]",below the threshold
same,pKd,"Inadl_2, Q8NI35; [2]",below the threshold
same,pKd,"Inadl_4, Q8NI35; [2]",below the threshold
same,pKd,"MAGI1_1, Q96QZ7; [2]",below the threshold
same,pKd,"Inadl_5, Q8NI35; [2]",below the threshold
same,pKd,"PDZRN4_1, Q6ZMN7; [2]",below the threshold
same,pKd,"FRMPD2_3, Q68DX3; [2]",below the threshold
same,pKd,"MAGI1_2, Q96QZ7; [2]",below the threshold
same,pKd,"DLG3_1, Q92796; [2]",below the threshold
same,pKd,"DLG4_1, P78352; [2]",below the threshold
same,pKd,"RHPN1, Q8TCX5; [2]",4.27
same,pKd,"ARHGEF11, O15085; [2]",3.49
same,pKd,"MAGI2_6, Q86UL8; [2]",below the threshold
same,pKd,"TJP2_1, Q9UDY2; [2]",below the threshold
same,pKd,"FRMPD4, Q14CM0; [2]",below the threshold
same,pKd,"MAGI2_4, Q86UL8; [2]",below the threshold
"NQLAWFDTDL [CTNNB1, P35222]",pKd,"GRIP1_5, Q9Y3R0; [3]",below the threshold
same,pKd,"HTRA4, P83105; [3]",below the threshold
same,pKd,"LDB3, O75112; [3]",3.99
same,pKd,"Inadl_6, Q8NI35; [3]",4.13
same,pKd,"NHERF3_1, Q5T2W1; [3]",3.66
same,pKd,"DVL3, Q92997; [3]",below the threshold
same,pKd,"APBA2_1, Q99767; [3]",below the threshold
same,pKd,"SNTG1, Q9NSN8; [3]",3.71
same,pKd,"LNX2_2, Q8N448; [3]",below the threshold
same,pKd,"DLG1_1, Q12959; [3]",below the threshold
same,pKd,"GRIP2_5, Q9C0E4; [3]",below the threshold
same,pKd,"GRIP1_3, Q9Y3R0; [3]",below the threshold
same,pKd,"Inadl_2, Q8NI35; [3]",below the threshold
same,pKd,"Inadl_4, Q8NI35; [3]",below the threshold
same,pKd,"MAGI1_1, Q96QZ7; [3]",below the threshold
same,pKd,"Inadl_5, Q8NI35; [3]",below the threshold
same,pKd,"PDZRN4_1, Q6ZMN7; [3]",below the threshold
same,pKd,"FRMPD2_3, Q68DX3; [3]",below the threshold
same,pKd,"MAGI1_2, Q96QZ7; [3]",below the threshold
same,pKd,"DLG3_1, Q92796; [3]",below the threshold
same,pKd,"DLG4_1, P78352; [3]",below the threshold
same,pKd,"RHPN1, Q8TCX5; [3]",4.46
same,pKd,"ARHGEF11, O15085; [3]",3.77
same,pKd,"MAGI2_6, Q86UL8; [3]",5.15
same,pKd,"TJP2_1, Q9UDY2; [3]",below the threshold
same,pKd,"FRMPD4, Q14CM0; [3]",4.28
same,pKd,"MAGI2_4, Q86UL8; [3]",below the threshold
